# Laboratory results taken from the supplement of paper PMC9170038.
# Tested on: MS2 coat protein
# Experiment: apparent KD of MS2 coat protein, switch ON state; designed switch direction (-1 OFF switch, 1 ON switch): 1; higher = weaker reporter binding
# Settings: FMN input: 0 or 200 uM; Eterna round: R93 (includes R88 designs)
# In short: (§1)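 SNAP-549-labelled MS2 coat protein was titrated onto designed RNA switches that had been transcribed on-chip from Illumina sequencing clusters. Amounts doubled from 0.7 or 1.5 nM to 3 µM in 100 mM Tris-HCl pH 7.5, 80 mM KCl, 4 mM MgCl2, with constant ligand or without. Apparent KD is the median per design of normalised cluster binding-curve fits.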
row,Sequence,apparent KD of MS2 coat protein [nM]
1,AAAAAAAAAACUGAGGAUAUGAAAUAAUAGACAUGAGGAUCACCCAUGUUUUCGGUCGAAAAAAUGCAGAAGGCAGAAAAAAAAAA [JR_SameState2_Sub3],19.4
2,UAUCAUUACACGAAGGAUAUCGAUAAUUGAACAUGAGGAUCACCCAUGUGACAUAUCUUACAGUUCGAGAAGGUCGAGGGUGAAG [JR_SS002_Sub706],28.9
3,AGCCGCACUAUACAGGAUAUCACAAUAUCGACAUGAGGAUCACCCAUGUGACUGGCACCAGUCGGUGAGAAGGGUGAAGUGCGGC [Raarati],90.6
4,AUAAAUAAAAGAGAGGAUAUCCAAAAGAAAACAUGAGGAUCACCCAUGUGAAAGAAAAUAAAAUGGGAGAAGGCUCACAAUAAUA [Topaz 32],23
5,CAUCAUGCGCCUAAGGAUAUGUCUCACAAGACAUGAGGAUCACCCAUGUAGACAAAAUAAGCGAUGCAGAAGGUGGAGCGCAUGC [Rasoer],83.1
6,AUAUAAAUAAGGUAGGAUAUACUAAAGUAAACAUGAGGAUCACCCAUGUAAAGAAAGAAACUCAUGUAGAAGGACCAUAUAUAUA [viburnum 1],24.4
7,GAAGACAUAGUUCAGGAUAUAGGAAUAGUCACAUGAGGAUCACCCAUGUGCAUUUAUAUGCGCGCUUAGAAGGGAGGUAGUUAUA [SameState2 Malc#21],24.2
8,AAAAUAUAAAGGAAGGAUAUCCAAAGGACUACAUGAGGAUCACCCAUGUAAAGAAAGAAUAAGUGGGAGAAGGUCCAAAUAAUAA [Designing denovo 31],27
9,CCGAUGGUAUACUAGGAUAUGGGCGCCCUUACAUGAGGAUCACCCAUGUUAUCACAAAGCCGCGGCCAGAAGGAGUUCAUGGGAG [Tieronsove],94.7
10,CGCAAACAUGAGGAUCACCCAUGUCAAUGUGGUCAAGGAUAUGGGUUCCUAAAUGGAACACCAGAAGGUGAAAAGA [Anesatve],20
11,GUCCAACAUGAGGAUCACCCAUGUAAGCGUGAUCAAGGAUAUGGGCGAAAGAAAACGCAACCAGAAGGUGAGCGCC [Aanmati],160
12,GGAAAUAACAGAGAGGAUAUCCAAAGGAAAACAUGAGGAUCACCCAUGUAAAAGGAAGGAAAUUGGGAGAAGGCUCAAAAUAAUC [salish99-ss2-017],23.9
13,GAAAAACAUGAGGAUCACCCAUGUAAAAAUAUGGGAGGAUAUUGAAACACGAAAGUCAAACAAGAAGGCCUAAAAG [Garnet 3],44.1
14,AAAAAAAAAAACUAGGAUAUUUAACGGACAACAUGAGGAUCACCCAUGUCACAAAAAAAAAUAGUAAAGAAGGAGUAAAAAAAAAA [Same State 2],25
15,AGAAGACAUGAGGAUCACCCAUGUGGGAAUAUGGGAGGAUAUACAAAGACGAGAGUCAGAGUAGAAGGCCUAGGCC [salish99-ss1-110],49.8
16,"AUAACACAUGAGGAUCACCCAUGUAGAAAUAAGGGAGGAUAUACAAAGACGAAAGUCAAAGUAGAAGGCUCAAAAG [76%, Meechl 4]",14.8
17,AACAAUCUAUCUGAGGAUAUGUGUCGAAAGACAUGAGGAUCACCCAUGUAAAAACAUGAAAAAUCACAGAAGGCAGAUAGAUUGA [SS2: 1144],59.3
18,AAUAGACAUGAGGAUCACCCAUGUAGAAUUAUGGGAGGAUAUACAAAGACGAGAGUCAGAGUAGAAGGCCUAGGAC [salish99-ss1-151],20.7

# Tested on: MS2 coat protein
# Experiment: apparent KD of MS2 coat protein, switch OFF state (with FMN for OFF switches, without FMN for ON switches); designed switch direction (-1 OFF switch, 1 ON switch): 1; higher = weaker reporter binding
# Settings: FMN input: 0 or 200 uM; Eterna round: R93 (includes R88 designs)
# In short: as §1
row,Sequence,apparent KD of MS2 coat protein [nM]
1,AAAAAAAAAACUGAGGAUAUGAAAUAAUAGACAUGAGGAUCACCCAUGUUUUCGGUCGAAAAAAUGCAGAAGGCAGAAAAAAAAAA [JR_SameState2_Sub3],23.8
2,UAUCAUUACACGAAGGAUAUCGAUAAUUGAACAUGAGGAUCACCCAUGUGACAUAUCUUACAGUUCGAGAAGGUCGAGGGUGAAG [JR_SS002_Sub706],52
3,AGCCGCACUAUACAGGAUAUCACAAUAUCGACAUGAGGAUCACCCAUGUGACUGGCACCAGUCGGUGAGAAGGGUGAAGUGCGGC [Raarati],421
4,AUAAAUAAAAGAGAGGAUAUCCAAAAGAAAACAUGAGGAUCACCCAUGUGAAAGAAAAUAAAAUGGGAGAAGGCUCACAAUAAUA [Topaz 32],26
5,CAUCAUGCGCCUAAGGAUAUGUCUCACAAGACAUGAGGAUCACCCAUGUAGACAAAAUAAGCGAUGCAGAAGGUGGAGCGCAUGC [Rasoer],348
6,AUAUAAAUAAGGUAGGAUAUACUAAAGUAAACAUGAGGAUCACCCAUGUAAAGAAAGAAACUCAUGUAGAAGGACCAUAUAUAUA [viburnum 1],264
7,GAAGACAUAGUUCAGGAUAUAGGAAUAGUCACAUGAGGAUCACCCAUGUGCAUUUAUAUGCGCGCUUAGAAGGGAGGUAGUUAUA [SameState2 Malc#21],23.9
8,AAAAUAUAAAGGAAGGAUAUCCAAAGGACUACAUGAGGAUCACCCAUGUAAAGAAAGAAUAAGUGGGAGAAGGUCCAAAUAAUAA [Designing denovo 31],68.3
9,CCGAUGGUAUACUAGGAUAUGGGCGCCCUUACAUGAGGAUCACCCAUGUUAUCACAAAGCCGCGGCCAGAAGGAGUUCAUGGGAG [Tieronsove],122
10,CGCAAACAUGAGGAUCACCCAUGUCAAUGUGGUCAAGGAUAUGGGUUCCUAAAUGGAACACCAGAAGGUGAAAAGA [Anesatve],54.5
11,GUCCAACAUGAGGAUCACCCAUGUAAGCGUGAUCAAGGAUAUGGGCGAAAGAAAACGCAACCAGAAGGUGAGCGCC [Aanmati],135
12,GGAAAUAACAGAGAGGAUAUCCAAAGGAAAACAUGAGGAUCACCCAUGUAAAAGGAAGGAAAUUGGGAGAAGGCUCAAAAUAAUC [salish99-ss2-017],24.3
13,GAAAAACAUGAGGAUCACCCAUGUAAAAAUAUGGGAGGAUAUUGAAACACGAAAGUCAAACAAGAAGGCCUAAAAG [Garnet 3],147
14,AAAAAAAAAAACUAGGAUAUUUAACGGACAACAUGAGGAUCACCCAUGUCACAAAAAAAAAUAGUAAAGAAGGAGUAAAAAAAAAA [Same State 2],23.8
15,AGAAGACAUGAGGAUCACCCAUGUGGGAAUAUGGGAGGAUAUACAAAGACGAGAGUCAGAGUAGAAGGCCUAGGCC [salish99-ss1-110],131
16,"AUAACACAUGAGGAUCACCCAUGUAGAAAUAAGGGAGGAUAUACAAAGACGAAAGUCAAAGUAGAAGGCUCAAAAG [76%, Meechl 4]",18.6
17,AACAAUCUAUCUGAGGAUAUGUGUCGAAAGACAUGAGGAUCACCCAUGUAAAAACAUGAAAAAUCACAGAAGGCAGAUAGAUUGA [SS2: 1144],144
18,AAUAGACAUGAGGAUCACCCAUGUAGAAUUAUGGGAGGAUAUACAAAGACGAGAGUCAGAGUAGAAGGCCUAGGAC [salish99-ss1-151],54
